Assay results: US12551583B2, “Radiolabeled ligands for targeted PET/SPECT imaging and methods of their use” (MEMORIAL SLOAN KETTERING CANCER CENTER, priority 2016, dated 2026)

Tested on: 4T1 orthotopic tumor-bearing BALB/c mice
Assay: in vivo
Conditions: mouse; for biodistribution, Blood / biodistribution, Bone / biodistribution, Brain / biodistribution, Heart / biodistribution, Kidneys / biodistribution, L. intestine / biodistribution, Liver / biodistribution, Lungs / biodistribution, Muscle / biodistribution, Pancreas / biodistribution, S. intestine / biodistribution, Skin / biodistribution, Spleen / biodistribution, Stomach / biodistribution, Tumor (4T1 tumoral uptake): iv, 4 h
Method: 4T1 orthotopic BALB/c mouse model. The cells were removed from the flasks, concentrated, and resuspended in minimal media for cell counting. The cells were then diluted to contain approximately 1 million cells in 30 μL of media (for orthotopic allografts). Following an MSKCC Institutional Animal Care and Use Committee approved protocol, 8-10 week old BALB/c mice (Charles River Laboratories, Wilmington, MA) were surgically implanted with one million 4T1 cancer cells into the first or the last mammary fat pad of the right side of the animal using aseptic surgical techniques and sterile staple closures while the mice were under anesthetic. Additionally, mice were given injections of meloxicam (24 h pain killer) in the scruff and bupivacaine intradermally prior to surgical incisions. One day post surgery, the mice were again given meloxicam and checked to ensure that the closure was healing. Two and three days post surgery, the mice were checked to ensure that the animals were healthy and recovering well from the surgery. Five to seven days post surgery, the staples were removed. Five to nine days post surgery, the mice were injected with 50-75 μCi (0.9-0.4 nmol) of the respective radiopharmaceutical for in vivo biodistribution or 500-600 μCi (9-11 nmol) for in vivo imaging. The mice receiving ^64Cu-NOTA-pHLIP were sacrificed at 1, 2, 4, 12, 24, 36, and 48 h; the mice receiving [^18F]—AlF-NOTA-pHLIP were sacrificed at 0.5, 1, 2, 4, 6 and 8 h. The 4T1 tumors in this study were purposely used 5-9 days after inoculation to ensure lower tumoral pH. Animal models. Animal studies were conducted according to MSKCC IACUC-approved animal protocol. 4T1 (orthotopic breast cancer allografts of 1×10^6 cells surgically implanted in the mammary fat pad) and B16-F10 (orthotopic melanoma allografts of 1×10^5 cells injected intradermally on the shoulder) tumors were orthotopically inoculated in media in female BALB/c and C57Bl/6 mice (Charles River Laboratories (CRL)), respectively. Additionally, PC3 (3×10^6 cells) or LNCaP (3-6×10^6 cells) tumors were subcutaneously xenografted on the shoulder of athymic nude male mice (CRL). Mice were used once tumor volumes were approximately 90-300 mm^3. In vivo animal PET imaging and biodistribution. Mice were injected with radiolabeled NOTA-pHLIP derivatives i.v. (500-700 μCi/mouse for PET or SPECT imaging studies and 25-100 μCi/mouse for biodistribution studies). All injections were less than 200 μL with <10% EtOH in sterile PBS. PET images were obtained with the mice under anesthesia in an Inveon PET-CT or microPET Focus 120 (Siemens) at 0.5-48 h p.i. All images were analyzed using ASIPro VM (Concorde Microsystems). SPECT images were obtained with the mice under anesthesia in a NanoSPECT/CT Plus at 4-24 h p.i. All SPECT images were reconstructed using HiSPECT and analyzed using InVivoScope. Dissections for ex vivo biodistribution were performed on mice after CO2 asphyxiation or cervical dislocation while anesthetized at reported time points. Weight of the syringe prior to injection and after injection was used to determine the mass of injectate. Activity of the syringe prior to injection and after injection was used to determine the percent of injectate administered. The mass injected was corrected by the percent of radioactivity injected. Four to five aliquots (10 μL) were weighed and counted as internal standards for each study. All of the collected organs were counted using an automatic gamma counter (Wizard 3″, PerkinElmer, Waltham, MA). The total injected dose was found as the mass injected dose×fraction radioactivity injected×internal standard average counts/g. The percent injected dose (% ID) was determined as the counts for the tissue×100/total injected dose. The % ID/g was calculated as the % ID/tissue weight. The average and standard deviation of the % ID and % ID/g was determined using normal methods (n−1) for each set of mice.

| SMILES | kidneys-to-large intestine ratio | biodistribution, Blood [% ID/g] | biodistribution, Bone [% ID/g] | biodistribution, Brain [% ID/g] | biodistribution, Heart [% ID/g] | biodistribution, Kidneys [% ID/g] | biodistribution, L. intestine [% ID/g] | biodistribution, Liver [% ID/g] | biodistribution, Lungs [% ID/g] | biodistribution, Muscle [% ID/g] | biodistribution, Pancreas [% ID/g] | biodistribution, S. intestine [% ID/g] | biodistribution, Skin [% ID/g] | biodistribution, Spleen [% ID/g] | biodistribution, Stomach [% ID/g] | biodistribution, Tumor (4T1 tumoral uptake) [% ID/g] |
| --- | --- | --- | --- | --- | --- | --- | --- | --- | --- | --- | --- | --- | --- | --- | --- | --- |
| CC(C)C[C@@H](NC(=O)[C@@H](CC(C)C)NC(=O)[C@@H](CC(=O)O)NC(=O)[C@@H](CC(C)C)NC(=O)[C@@H](CC(C)C)NC(=O)[C@@H](CC(C)C)NC(=O)[C@H](NC(=O)[C@@H](CC(=O)O)NC(=O)[C@H](NC(=O)[C@H]1CCCN1C(=O)[C@@H](Cc1ccccc1)NC(=O)[C@@H](CC(C)C)NC(=O)[C@@H](CC(C)C)NC(=O)[C@@H](CC(=O)O)NC(=O)[C@@H](CC(C)C)NC(=O)[C@@H](Cc1ccc(O)cc1)NC(=O)[C@@H](C)NC(=O)[C@@H](CCCNC(=N)N)NC(=O)[C@@H](Cc1c[nH]c2ccccc12)NC(=O)[C@H]1CCCN1C(=O)[C@@H](CC(N)=O)NC(=O)[C@@H](CCC(N)=O)NC(=O)[C@@H](CC(=O)O)NC(=O)[C@@H](CC(=O)O)NC(=O)[C@@H](CS)NC(=O)[C@@H](C)NC(=S)Nc1ccc(CC2CN(CC(=O)O)CCN(CC(=O)O)CCN2CC(=O)O)cc1)[C@H](C)O)[C@H](C)O)C(=O)N[C@H](Cc1c[nH]c2ccccc12)C(=O)O (single isomer, unassigned) [[^18F]—AlF-NOTA-Var3] | 0.52±0.15 | 2.201 ± 0.374 | 0.540 ± 0.119 | 0.107 ± 0.023 | 0.78 ± 0.08 | 8.237 ± 1.106 | 22.05 ± 2.46 | 0.923 ± 0.153 | 2.217 ± 0.380 | 0.282 ± 0.055 | 0.332 ± 0.020 | 0.927 ± 0.152 | 1.126 ± 0.115 | 0.469 ± 0.093 | 0.482 ± 0.223 | 0.923 ± 0.119 |
| CC(C)C[C@@H](NC(=O)[C@@H](CCC(=O)O)NC(=O)[C@@H](CC(C)C)NC(=O)[C@@H](CC(C)C)NC(=O)[C@@H](CC(C)C)NC(=O)[C@H](NC(=O)[C@@H](CCC(=O)O)NC(=O)[C@H](NC(=O)[C@H]1CCCN1C(=O)[C@@H](Cc1ccccc1)NC(=O)[C@@H](CC(C)C)NC(=O)[C@@H](Cc1c[nH]c2ccccc12)NC(=O)[C@@H](CCC(=O)O)NC(=O)[C@@H](CC(C)C)NC(=O)[C@@H](Cc1ccc(O)cc1)NC(=O)[C@@H](CCCNC(=N)N)NC(=O)[C@@H](C)NC(=O)[C@@H](Cc1c[nH]c2ccccc12)NC(=O)[C@H]1CCCN1C(=O)[C@@H](CC(N)=O)NC(=O)[C@@H](CCC(N)=O)NC(=O)[C@@H](CCC(=O)O)NC(=O)[C@@H](CCC(=O)O)NC(=O)[C@@H](CS)NC(=O)[C@@H](C)NC(=S)Nc1ccc(CC2CN(CC(=O)O)CCN(CC(=O)O)CCN2CC(=O)O)cc1)[C@H](C)O)[C@H](C)O)C(=O)O (single isomer, unassigned) [[^18F]—AlF-NOTA-Var7] | 0.55±0.19 | 2.292 ± 0.277 | 0.571 ± 0.202 | 0.118 ± 0.011 | 0.78 ± 0.06 | 7.759 ± 0.658 | 22.08 ± 6.02 | 1.089 ± 0.066 | 2.325 ± 0.212 | 0.325 ± 0.073 | 0.373 ± 0.051 | 0.776 ± 0.196 | 1.377 ± 0.148 | 0.485 ± 0.029 | 0.593 ± 0.153 | 1.105 ± 0.125 |
| CC(C)C[C@@H](NC(=O)[C@@H](CCC(=O)O)NC(=O)[C@@H](CC(C)C)NC(=O)[C@@H](CC(C)C)NC(=O)[C@@H](CC(C)C)NC(=O)[C@H](NC(=O)[C@@H](CCC(=O)O)NC(=O)[C@H](NC(=O)[C@H]1CCCN1C(=O)[C@@H](Cc1ccccc1)NC(=O)[C@@H](CC(C)C)NC(=O)[C@@H](Cc1c[nH]c2ccccc12)NC(=O)[C@@H](CCC(=O)O)NC(=O)[C@@H](CC(C)C)NC(=O)[C@@H](Cc1ccc(O)cc1)NC(=O)[C@@H](CCCNC(=N)N)NC(=O)[C@@H](C)NC(=O)[C@@H](Cc1c[nH]c2ccccc12)NC(=O)[C@H]1CCCN1C(=O)[C@@H](CC(N)=O)NC(=O)[C@@H](CCC(N)=O)NC(=O)[C@@H](CCC(=O)O)NC(=O)[C@@H](CCC(=O)O)NC(=O)[C@@H](CSC1CC(=O)N(CCNC(=O)CN2CCN(CC(=O)O)CCN(CC(=O)O)CC2)C1=O)NC(=O)[C@@H](C)N)[C@H](C)O)[C@H](C)O)C(=O)O (single isomer, unassigned) [^64Cu-NO2A-cysVar7, metal not drawn] |  | 2.31 ± 0.18 | 1.57 ± 0.18 | 0.25 ± 0.02 | 2.68 ± 0.33 | 95.5 ± 11.9 | 8.19 ± 0.85 | 15.6 ± 1.58 | 4.21 ± 0.23 | 0.64 ± 0.07 | 1.84 ± 0.10 | 6.37 ± 0.11 | 2.59 ± 0.05 | 3.31 ± 0.24 | 3.33 ± 0.31 | 9.07 ± 1.81 |
| CC(C)C[C@@H](NC(=O)[C@@H](CC(C)C)NC(=O)[C@@H](CC(=O)O)NC(=O)[C@@H](CC(C)C)NC(=O)[C@@H](CC(C)C)NC(=O)[C@@H](CC(C)C)NC(=O)[C@H](NC(=O)[C@@H](CC(=O)O)NC(=O)[C@H](NC(=O)[C@H]1CCCN1C(=O)[C@@H](Cc1ccccc1)NC(=O)[C@@H](CC(C)C)NC(=O)[C@@H](CC(C)C)NC(=O)[C@@H](CC(=O)O)NC(=O)[C@@H](CC(C)C)NC(=O)[C@@H](Cc1ccc(O)cc1)NC(=O)[C@@H](C)NC(=O)[C@@H](CCCNC(=N)N)NC(=O)[C@@H](Cc1c[nH]c2ccccc12)NC(=O)[C@H]1CCCN1C(=O)[C@@H](CC(N)=O)NC(=O)[C@@H](CCC(N)=O)NC(=O)[C@@H](CC(=O)O)NC(=O)[C@@H](CC(=O)O)NC(=O)[C@@H](CS)NC(=O)[C@@H](C)NC(=S)Nc1ccc(CC2CN(CC(=O)O)CCN(CC(=O)O)CCN2CC(=O)O)cc1)[C@H](C)O)[C@H](C)O)C(=O)N[C@H](Cc1c[nH]c2ccccc12)C(=O)O (single isomer, unassigned) [^64Cu-NOTA-Var3, metal not drawn] |  | 1.371 ± 0.244 | 0.339 ± 0.018 | 0.063 ± 0.011 | 0.49 ± 0.05 | 7.165 ± 1.126 | 7.45 ± 2.73 | 1.034 ± 0.150 | 1.420 ± 0.117 | 0.171 ± 0.017 | 0.279 ± 0.041 | 0.320 ± 0.042 | 0.775 ± 0.102 | 0.340 ± 0.032 | 0.194 ± 0.050 | 0.649 ± 0.091 |
